Our source for the percent of input target protein bound values is patent US20250027939A1.

This experiment deals with S protein (UniProt P61823). The experiment can be described thus: affinity column capture; EGFP fluorescence of column fractions as percent of input.
UniProt P61823, sequence (P61823 47-150): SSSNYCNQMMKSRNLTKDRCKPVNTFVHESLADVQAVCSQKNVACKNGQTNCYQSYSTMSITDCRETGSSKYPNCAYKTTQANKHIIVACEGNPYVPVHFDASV

As to S tag-bearing target protein (EGFP), the percent of input target protein bound turned out to be 50%.
